From PMC4137956

Tests used:
Assay in all cases: SPR; biotinylated SIRPα variants bound to streptavidin immobilised on a BIAcore CM5 chip, BIAcore 3000, 37°; dilutions of monomeric recombinant CD47 extracellular domain passed over; affinity from equilibrium binding
[1] = target: NOD mouse SIRPα, N-terminal domain (d1), wild type (mouse)
[2] = target: human SIRPα V2, three extracellular IgSF domains (3d) (human) (UniProt P78324)
[3] = target: NOD mouse SIRPα + SE mutant, three extracellular IgSF domains (3d) (mouse)
[4] = target: NOD mouse SIRPα + SE mutant, N-terminal domain (d1) (mouse)

Chain of human CD47 IgSF domain, monomeric recombinant extracellular domain (Q08722 19-136): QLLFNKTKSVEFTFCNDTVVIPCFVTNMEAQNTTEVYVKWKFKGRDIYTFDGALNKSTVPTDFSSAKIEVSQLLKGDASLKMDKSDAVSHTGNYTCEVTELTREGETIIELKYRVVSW
Chain of mouse CD47 IgSF domain, monomeric recombinant extracellular domain (Q61735 19-139): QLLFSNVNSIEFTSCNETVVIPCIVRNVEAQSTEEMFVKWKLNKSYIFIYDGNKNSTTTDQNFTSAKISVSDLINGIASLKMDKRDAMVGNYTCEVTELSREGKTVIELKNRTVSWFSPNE
Chain of NOD mouse SIRPα, N-terminal domain (d1), wild type (mouse) (P97797 1-148): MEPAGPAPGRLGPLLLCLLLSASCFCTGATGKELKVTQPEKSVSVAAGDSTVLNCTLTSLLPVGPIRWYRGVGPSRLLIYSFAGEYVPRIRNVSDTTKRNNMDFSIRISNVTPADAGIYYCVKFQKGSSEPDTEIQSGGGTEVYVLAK

Row | Substance | Kd [1] [µM] | Kd [2] [µM] | Kd [3] [µM] | Kd [4] [µM]
1 | human CD47 IgSF domain, monomeric recombinant extracellular domain (from UniProt Q08722-1 19-136) (domain or fragment) | 0.08 | 0.6 | 7.6 | 9.4
2 | mouse CD47 IgSF domain, monomeric recombinant extracellular domain (from UniProt Q61735 19-139) (domain or fragment) | 4.7 | > 30 | 8.6 | 11.8
